# According to US20150050213A1, “COMPOSITIONS AND METHODS FOR IMAGING INFLAMMATION OF TRAUMATIC BRAIN INJURY” (University of Virginia Patent Foundation, priority 2013, published 2015):
# Tests used:
# FPR = target: T1, FPR (Homo sapiens, UniProt P21462); conditions: human neutrophils; Locke et al. 2009; cited from earlier work
# T1 construct: endogenous in cells; host or cells: human neutrophils
# T1 sequence (P21462 1-350): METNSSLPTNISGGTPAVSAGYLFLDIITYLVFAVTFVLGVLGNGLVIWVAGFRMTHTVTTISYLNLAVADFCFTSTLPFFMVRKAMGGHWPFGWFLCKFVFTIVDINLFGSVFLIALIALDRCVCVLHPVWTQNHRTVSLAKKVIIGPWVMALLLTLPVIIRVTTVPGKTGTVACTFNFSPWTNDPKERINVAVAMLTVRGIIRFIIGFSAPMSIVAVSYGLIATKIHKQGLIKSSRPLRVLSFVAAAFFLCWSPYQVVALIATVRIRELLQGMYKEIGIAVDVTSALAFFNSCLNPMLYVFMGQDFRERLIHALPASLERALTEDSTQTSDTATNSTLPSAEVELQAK
# [1] = target: T2, neutrophil N-formylpeptide receptor (Homo sapiens, UniProt P21462); conditions: reported in the literature; cited from earlier work
# T2 sequence (P21462 1-350): T1 sequence (P21462 1-350)
# [2] = reported; poor imaging quality due to lipophilicity; cited from earlier work
# infiltrating neutrophils [3] = experiment: neutrophil co-localization immunohistochemistry after CCI TBI; assay type: in vivo; conditions: CCI TBI rats, 12 hours post-injury
# Protocol: Neutrophil co-localization: Rats underwent CCI injury as described above and were immediately injected with cFLFLF-PEG-Cy5 through a tail vein catheter. Animals were sacrificed 12 hours post-injection and perfused with 200 cc of a 10% sucrose wash and 200 cc of 4% paraformaldehyde. After four hours, animals were perfused with a 30% sucrose cryoprotectant. Brains were then removed and sectioned at a thickness of […]. Sections were incubated in rabbit anti-rat neutrophil elastase (abcam 21595) at a dilution of 1:200 overnight at 4° C. Next, sections were washed three times in PBS and then incubated in alexa fluor 488 goat anti-rabbit antibody at a 1:200 dilution at room temperature for two hours. Sections were washed three times in PBS. Vectashield mounting medium with DAPI was applied to each section with a cover slip. Slides were assessed with a Zeiss Axioimager Z1 microscope equipped with the Apotome module. Photomicrographs were acquired using the Zeiss Zen 2011 software (FIG. 2).
# infiltrating neutrophils [4] = test system: infiltrating neutrophils; parameters: species or system Sprague-Dawley rats; conditions: rat, in vivo
# Protocol: Sprague-Dawley rats (N=3/experimental group) underwent moderate-severe experimental controlled cortical impact (CCI) trauma brain injury (TBI) or SHAM preparation. Animals were sacrificed 12, 24, or 48 hours post-injury, a tail vein catheter was inserted 12 hr prior to sacrifice, and each animal received a 2 mCi dose of cFLFLF-PEG-^64Cu. Radiopharmaceutical was allowed to circulate for 12 hrs prior to sacrifice. Brains were removed and unfixed, […] frozen sections were collected on a Leica CM3050S cryostat. Sections were collected onto slides and placed on radiosensitive FujiFilm SR imaging plates for 12 hours. Each screen was read with a GE Typhoon FLA9000 phosphor imager at a pixel size of […]. Average intensity values from seven ROIs (FIG. 5B-5G) were measured from 20 brain sections that included the entirety of the contusion volume. Values were normalized to the corrected dose of radiation and animal body weight. Average intensity values of each ROI were compared to the contralateral anatomical region in each of the SHAM, 12, 24 hour, and 48 hour experimental groups. Phosphor imaging is a standard technique for determining whether a labeled ligand is suitable for PET imaging and positive results are an indicator that the labeled ligand is indeed useful for PET imaging.
# [5] = target: T3, neutrophil receptor (formyl peptide receptor, FPR) (Homo sapiens, UniProt P21462); conditions: human neutrophils; Zhang et al. 2007; cited from earlier work
# T3 construct: endogenous in cells; host or cells: human neutrophils
# T3 sequence (P21462 1-350): T1 sequence (P21462 1-350)
# neutrophils = conditions: superoxide stimulation assays; Locke et al.; cited from earlier work
# [6] = mouse, in vivo; cited from earlier work
Substance,Kd (FPR),affinity for the neutrophil N-formylpeptide receptor [1],liver uptake [2],co-localization with neutrophil markers (infiltrating neutrophils [3]),post-injury time point of most prominent uptake (infiltrating neutrophils [4]),"time of statistically significant peak uptake, ratio ipsilateral to contralateral, caudate and putamen (infiltrating neutrophils [4])","time of statistically significant peak uptake, ratio ipsilateral to contralateral, corpus callosum (infiltrating neutrophils [4])","time of statistically significant peak uptake, ratio ipsilateral to contralateral, cortex (infiltrating neutrophils [4])","time of statistically significant peak uptake, ratio ipsilateral to contralateral, hemisphere (infiltrating neutrophils [4])","time of statistically significant peak uptake, ratio ipsilateral to contralateral, hippocampus (infiltrating neutrophils [4])",uptake within cerebrospinal fluid (CSF) in the ventricles (infiltrating neutrophils [4]),Kd [5],biologic activity toward neutrophils (neutrophils),mean biologic half-life [6]
cF(D)LF(D)LF [cFLFLF],2 nM,high affinity,high liver uptake,,,,,,,,,,,
cinnamoyl-F(D)LF(D)LFK-polyethylene glycol [cFLFLF-PEG],,,,localizes to infiltrating neutrophils within brain parenchyma,,,,,,,,,,
cinnamoyl-F(D)LF(D)LFK-polyethylene glycol-DOTA-64Cu [cFLFLF-PEG-^64Cu],17.7 nM,,,,12 h,12 h,12 h,12 and 24 hour,12 h,12 h,intense uptake,5.7 nM,no biologic activity toward neutrophils,55±8 min
